Laboratory results published in patent US20180155451A1 (published 2018).

T1: FcγRIIa H (human, UniProt P12318 34-217)
T1 construct: extracellular domain; also called FcγRIIa type H; 2aH
T1 sequence (looked up): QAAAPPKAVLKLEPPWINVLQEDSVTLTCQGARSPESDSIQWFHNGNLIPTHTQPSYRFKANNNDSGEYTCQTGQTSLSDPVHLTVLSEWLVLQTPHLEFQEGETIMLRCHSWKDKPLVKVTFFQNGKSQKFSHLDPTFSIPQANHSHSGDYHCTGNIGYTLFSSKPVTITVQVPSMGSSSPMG

T2: FcγRIIb (human, UniProt P31994 43-217)
T2 construct: extracellular domain; also called 2b
T2 sequence (looked up): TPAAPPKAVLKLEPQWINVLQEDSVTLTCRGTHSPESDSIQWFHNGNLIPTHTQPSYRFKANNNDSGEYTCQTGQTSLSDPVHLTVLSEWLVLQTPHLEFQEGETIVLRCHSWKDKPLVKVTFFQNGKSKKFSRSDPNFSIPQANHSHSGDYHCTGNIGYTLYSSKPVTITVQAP


What was measured:
FcγRIIa H [1] = biological target: T1, FcγRIIa H; assay: SPR; He/Con_2aH divided by He/Con_2b (FcγRIIb)
Procedure: The heterodimerized antibodies He Abs in which one of the H chains was introduced with an alteration were assayed for their binding activities to each activating FcγR and inhibitory FcγR according to the method described in Example 4. […] The activating FcγRs in FIGS. 26, 27, 28, and 29 are FcγRIa, FcγRIIa (R), FcγRIIa (H), and FcγRIIIa, respectively.
Analysis of interaction between objective antibody and the FcγR was carried out using Biacore T100 (GE Healthcare). HBS-EP+ (GE Healthcare) was used as the running buffer, and the measurement temperature was set to 25° C. Chips produced by immobilizing the antigen peptide by the amine coupling method to a Series S Sencor Chip CM5 (GE Healthcare), or alternatively, chips produced by allowing preliminarily biotinylated antigen peptides to interact with and immobilize onto a Series S Sensor Chip SA (certified) (GE Healthcare) were used. Antibodies of interest were captured onto an antigen peptide-immobilized chip, and allowed to interact to each FcγR diluted with running buffer. To regenerate and repeatedly use the chip, the antibodies captured on the chip were washed off by reacting 10 mM glycine-HCl, pH 1.5.

FcγRIIa H [2] = biological target: T1, FcγRIIa H; assay: SPR (Biacore), relative binding vs GpH7-A5/GpH7-B3/GpL16-k0
FcγRIIb = biological target: T2, FcγRIIb; assay: as above

Binder	He_2aH/2b (IIaH/IIb) (FcγRIIa H [1]) [ratio]	He/Con_2aH (FcγRIIa H [2])	He/Con_2b (FcγRIIb)
GpH7-A5/GpH7-B3 variant K326_05P/GpL16-k0 (antibody, human IgG1, kappa, heterodimerized IgG1, mutation in one H chain only; also called He Ab) heavy 1: not shown heavy 2: not shown light: DIVMTQSPLSLPVTPGEPASISCQASESLVHSNRNTYLHWYLQKPGQSPQLLIYKVSNRFSGVPDRFSGSGSGTDFTLKISRVEAEDVGVYYCSQNTHVPPTFGQGTKVEIERTVAAPSVFIFPPSDEQLKSGTASVVCLLNNFYPREAKVQWKVDNALQSGNSQESVTEQDSKDSTYSLSSTLTLSKADYEKHKVYACEVTHQGLSSPVTKSFNRGEC	0.79	98.8 % of control He Ab (=100)	126 % of control He Ab (=100)
GpH7-A5/GpH7-B3 variant P271_01G/GpL16-k0 (antibody, human IgG1, kappa, heterodimerized IgG1, mutation in one H chain only; also called He Ab) heavy 1: not shown heavy 2: not shown light: DIVMTQSPLSLPVTPGEPASISCQASESLVHSNRNTYLHWYLQKPGQSPQLLIYKVSNRFSGVPDRFSGSGSGTDFTLKISRVEAEDVGVYYCSQNTHVPPTFGQGTKVEIERTVAAPSVFIFPPSDEQLKSGTASVVCLLNNFYPREAKVQWKVDNALQSGNSQESVTEQDSKDSTYSLSSTLTLSKADYEKHKVYACEVTHQGLSSPVTKSFNRGEC	0.55	107 % of control He Ab (=100)	193 % of control He Ab (=100)
GpH7-A5/GpH7-B3 variant P271_10E/GpL16-k0 (antibody, human IgG1, kappa, heterodimerized IgG1, mutation in one H chain only; also called He Ab) heavy 1: not shown heavy 2: not shown light: DIVMTQSPLSLPVTPGEPASISCQASESLVHSNRNTYLHWYLQKPGQSPQLLIYKVSNRFSGVPDRFSGSGSGTDFTLKISRVEAEDVGVYYCSQNTHVPPTFGQGTKVEIERTVAAPSVFIFPPSDEQLKSGTASVVCLLNNFYPREAKVQWKVDNALQSGNSQESVTEQDSKDSTYSLSSTLTLSKADYEKHKVYACEVTHQGLSSPVTKSFNRGEC	0.58	63.1 % of control He Ab (=100)	109 % of control He Ab (=100)

Second part, the binder after the results:

He_2aH/2b (IIaH/IIb) (FcγRIIa H [1]) [ratio]	He/Con_2aH (FcγRIIa H [2])	He/Con_2b (FcγRIIb)	Binder
0.64	60.9 % of control He Ab (=100)	95.4 % of control He Ab (=100)	GpH7-A5/GpH7-B3 variant P271_14T/GpL16-k0 (antibody, human IgG1, kappa, heterodimerized IgG1, mutation in one H chain only; also called He Ab) heavy 1: not shown heavy 2: not shown light: DIVMTQSPLSLPVTPGEPASISCQASESLVHSNRNTYLHWYLQKPGQSPQLLIYKVSNRFSGVPDRFSGSGSGTDFTLKISRVEAEDVGVYYCSQNTHVPPTFGQGTKVEIERTVAAPSVFIFPPSDEQLKSGTASVVCLLNNFYPREAKVQWKVDNALQSGNSQESVTEQDSKDSTYSLSSTLTLSKADYEKHKVYACEVTHQGLSSPVTKSFNRGEC
0.8	25.1 % of control He Ab (=100)	31.5 % of control He Ab (=100)	GpH7-A5/GpH7-B3 variant S267_05P/GpL16-k0 (antibody, human IgG1, kappa, heterodimerized IgG1, mutation in one H chain only; also called He Ab) heavy 1: not shown heavy 2: not shown light: DIVMTQSPLSLPVTPGEPASISCQASESLVHSNRNTYLHWYLQKPGQSPQLLIYKVSNRFSGVPDRFSGSGSGTDFTLKISRVEAEDVGVYYCSQNTHVPPTFGQGTKVEIERTVAAPSVFIFPPSDEQLKSGTASVVCLLNNFYPREAKVQWKVDNALQSGNSQESVTEQDSKDSTYSLSSTLTLSKADYEKHKVYACEVTHQGLSSPVTKSFNRGEC
0.61	63.3 % of control He Ab (=100)	104 % of control He Ab (=100)	GpH7-A5/GpH7-B3 variant S267_14T/GpL16-k0 (antibody, human IgG1, kappa, heterodimerized IgG1, mutation in one H chain only; also called He Ab) heavy 1: not shown heavy 2: not shown light: DIVMTQSPLSLPVTPGEPASISCQASESLVHSNRNTYLHWYLQKPGQSPQLLIYKVSNRFSGVPDRFSGSGSGTDFTLKISRVEAEDVGVYYCSQNTHVPPTFGQGTKVEIERTVAAPSVFIFPPSDEQLKSGTASVVCLLNNFYPREAKVQWKVDNALQSGNSQESVTEQDSKDSTYSLSSTLTLSKADYEKHKVYACEVTHQGLSSPVTKSFNRGEC
0.26	50.8 % of control He Ab (=100)	192 % of control He Ab (=100)	GpH7-A5/GpH7-B3 variant S267_03V/GpL16-k0 (antibody, human IgG1, kappa, heterodimerized IgG1, mutation in one H chain only; also called He Ab) heavy 1: not shown heavy 2: not shown light: DIVMTQSPLSLPVTPGEPASISCQASESLVHSNRNTYLHWYLQKPGQSPQLLIYKVSNRFSGVPDRFSGSGSGTDFTLKISRVEAEDVGVYYCSQNTHVPPTFGQGTKVEIERTVAAPSVFIFPPSDEQLKSGTASVVCLLNNFYPREAKVQWKVDNALQSGNSQESVTEQDSKDSTYSLSSTLTLSKADYEKHKVYACEVTHQGLSSPVTKSFNRGEC
0.16	34.3 % of control He Ab (=100)	210 % of control He Ab (=100)	GpH7-A5/GpH7-B3 variant S267_06M/GpL16-k0 (antibody, human IgG1, kappa, heterodimerized IgG1, mutation in one H chain only; also called He Ab) heavy 1: not shown heavy 2: not shown light: DIVMTQSPLSLPVTPGEPASISCQASESLVHSNRNTYLHWYLQKPGQSPQLLIYKVSNRFSGVPDRFSGSGSGTDFTLKISRVEAEDVGVYYCSQNTHVPPTFGQGTKVEIERTVAAPSVFIFPPSDEQLKSGTASVVCLLNNFYPREAKVQWKVDNALQSGNSQESVTEQDSKDSTYSLSSTLTLSKADYEKHKVYACEVTHQGLSSPVTKSFNRGEC
